Laboratory results taken from publication PMC11290222.
Read-outs that look alike come from different tables or passages of the source. One block for each molecule: values may come before it.

How the values were obtained:
[1] = target: Ubx with E19G in the homeodomain, fused to VN (Ubx^E19G) (Drosophila); test: split reporter (BiFC, NanoBiT); BiFC in HEK293 cells co-transfected with VN- and VC-plasmids and pCAG-mCherry; read 48 h after transfection; percent = Venus fluorescent cells in one hundred red fluorescent cells, three independent triplicates
[2] = target: Ubx homeodomain fused to VN (UbxHD) (Drosophila); test: as above
[3] = target: Ultrabithorax full-length fused to the N-terminal half of Venus (VN-Ubx) (Drosophila) (UniProt P83949); test: as above
[4] = target: AntpΔHD-Ubx BiFC pair (VC-AntpΔHD with VNUbx) (Drosophila) (UniProt P02833); test: split reporter (BiFC, NanoBiT) + FRET or BRET; BiFC-FRET in HEK293 cells: Venus reconstituted by the Antp-Ubx BiFC as acceptor, third protein fused to ECFP as donor; confocal spectral imaging 48 h after transfection; E-value by FRETTY in ImageJ
[5] = target: Antp^AAAA-Ubx BiFC complex (YPWM mutant Antp with VNUbx) (Drosophila) (UniProt P02833); test: as above
[6] = target: Ubx homeodomain fused to VN (UbxHD) (Drosophila); test: split reporter (BiFC, NanoBiT); BiFC in HEK293 cells co-transfected with VN- and VC-plasmids and pCAG-mCherry; read 48 h after transfection; percent = Venus fluorescent cells in one hundred red fluorescent cells, three independent triplicates; remark: listed apart in the source

Sequence of Ubx homeodomain fused to VN (UbxHD) (Drosophila) (P83949 whole entry, the tested form may be a part): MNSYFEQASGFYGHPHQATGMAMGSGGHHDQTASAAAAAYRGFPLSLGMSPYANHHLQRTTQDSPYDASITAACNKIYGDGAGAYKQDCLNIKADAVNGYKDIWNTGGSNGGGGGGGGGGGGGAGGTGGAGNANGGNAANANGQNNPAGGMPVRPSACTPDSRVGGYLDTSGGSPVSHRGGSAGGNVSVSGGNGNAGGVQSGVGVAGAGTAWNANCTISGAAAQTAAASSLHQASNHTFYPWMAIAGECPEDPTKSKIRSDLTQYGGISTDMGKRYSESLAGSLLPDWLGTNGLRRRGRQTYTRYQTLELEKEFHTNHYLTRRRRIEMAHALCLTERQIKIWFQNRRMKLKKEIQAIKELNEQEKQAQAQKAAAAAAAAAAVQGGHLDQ

Molecule: Antennapedia full-length fused to the C-terminal half of Venus (VC-Antp) (from UniProt P02833 1-378) (natural protein)
percent of transfected cells positive in BiFC [1]: 86%

Molecule: Antp homeodomain fused to VC (AntpHD) (domain or fragment)
percent of transfected cells positive in BiFC [2]: 96%

Molecule: Antp homeodomain with E19G, fused to VC (AntpHD^E19G) (domain or fragment)
percent of transfected cells positive in BiFC [3]: 60%
percent of transfected cells positive in BiFC [1]: 67%

Molecule: Antp lacking homeodomain helixes 1 and 2, fused to VC (AntpΔH1-2) (from UniProt P02833 1-378) (natural protein)
percent of transfected cells positive in BiFC [3]: 12%

B1: Extradenticle fused to ECFP (natural protein)
chain: MEDPNRMLAHTGGMMAPQGYGLSGQDDGQNAGSENEVRKQKDIGEILQQIMSISEQSLDEAQARKHTLNCHRMKPALFSVLCEIKEKTVLSIRNTQEEEPPDPQLMRLDNMLIAEGVAGPEKGGGGAAAASAAAASQGGSLSIDGADNAIEHSDYRAKLAQIRQIYHQELEKYEQACNEFTTHVMNLLREQSRTRPITPKEIERMVQIIHKKFSSIQMQLKQSTCEAVMILRSRFLDARRKRRNFSKQASEILNEYFYSHLSNPYPSEEAKEELARKCGITVSQVSNWFGNKRIRYKKNIGKAQEEANLYAAKKAAGASPYSMAGPPSGTTTPMMSPAPPQDSMGYPMGSGGYDQQQPYDNSMGGYDPNLHQDLSP
FRET E value [4]: 0.12
FRET E value [5]: 0.16

Further lines, results first:

percent of transfected cells positive in BiFC [3]: 24%
Molecule: Antp lacking homeodomain helix 1, fused to VC (AntpΔH1) (from UniProt P02833 1-378) (natural protein)

percent of transfected cells positive in BiFC [3]: 6%
Molecule: Antp with the homeodomain deleted, fused to VC (AntpΔHD) (from UniProt P02833 1-378) (natural protein)

percent of transfected cells positive in BiFC [3]: 34%
percent of transfected cells positive in BiFC [2]: 15%
Molecule: TBP without the PolyQ stretch, fused to a Venus half for BiFC (TBPΔQ) (from UniProt P20227 1-353) (natural protein)

percent of transfected cells positive in BiFC [6]: 41%
B2: TATA-binding protein fused to a Venus half for BiFC (TBP) (natural protein)
chain: MDQMLSPNFSIPSIGTPLHQMEADQQIVANPVYHPPAVSQPDSLMPAPGSSSVQHQQQQQQSDASGGSGLFGHEPSLPLAHKQMQSYQPSASYQQQQQQQQLQSQAPGGGGSTPQSMMQPQTPQSMMAHMMPMSERSVGGSGAGGGGDALSNIHQTMGPSTPMTPATPGSADPGIVPQLQNIVSTVNLCCKLDLKKIALHARNAEYNPKRFAAVIMRIREPRTTALIFSSGKMVCTGAKSEDDSRLAARKYARIIQKLGFPAKFLDFKIQNMVGSCDVKFPIRLEGLVLTHCNFSSYEPELFPGLIYRMVRPRIVLLIFVSGKVVLTGAKVRQEIYDAFDKIFPILKKFKKQS
